The chains are these.
B1: Synphilin-1 (Homo sapiens), Q9Y6H5 (parent)
chain: MEAPEYLDLDEIDFSDDISYSVTSLKTIPELCRRCDTQNEDRSVSSSSWNCGISTLITNTQKPTGIADVYSKFRPVKRVSPLKHQPETLENNESDDQKNQKVVEYQKGGESDLGPQPQELGPGDGVGGPPGKSSEPSTSLGELEHYDLDMDEILDVPYIKSSQQLASFTKVTSEKRILGLCTTINGLSGKACSTGSSESSSSNMAPFCVLSPVKSPHLRKASAVIHDQHKLSTEETEISPPLVKCGSAYEPENQSKDFLNKTFSDPHGRKVEKTTPDCQLRAFHLQSSAAESKPEEQVSGLNRTSSQGPEERSEYLKKVKSILNIVKEGQISLLPHLAADNLDKIHDENGNNLLHIAASQGHAECLQHLTSLMGEDCLNERNTEKLTPAGLAIKNGQLECVRWMVSETEAIAELSCSKDFPSLIHYAGCYGQEKILLWLLQFMQEQGISLDEVDQDGNSAVHVASQHGYLGCIQTLVEYGANVTMQNHAGEKPSQSAERQGHTLCSRYLVVVETCMSLASQVVKLTKQLKEQTVERVTLQNQLQQFLEAQKSEGKSLPSSPSSPSSPASRKSQWKSPDADDDSVAKSKPGVQEGIQVLGSLSASSRARPKAKDEDSDKILRQLLGKEISENVCTQEKLSLEFQDAQASSRNSKKIPLEKRELKLARLRQLMQRSLSESDTDSNNSEDPKTTPVRKADRPRPQPIVESVESMDSAESLHLMIKKHTLASGGRRFPFSIKASKSLDGHSPSPTSESSEPDLESQYPGSGSIPPNQPSGDPQQPSPDSTAAQKVATSPKSALKSPSSKRRTSQNLKLRVTFEEPVVQMEQPSLELNGEKDKDKGRTLQRTSTSNESGDQLKRPFGAFRSIMETLSGNQNNNNNYQAANQLKTSTLPLTSLGRKTDAKGNPASSASKGKNKAA

In this test the parent is B1. Conditions: with syua_human SNCA.
A519N: the “effect of a mutation on the interaction” value was “decreasing interaction”.

Consider K524A, for which the “effect of a mutation on the interaction” value is given as “decreasing interaction”. Turning to K527A, the “effect of a mutation on the interaction” value is “decreasing interaction”. Consider V523N, for which the “effect of a mutation on the interaction” value is on record as “decreasing interaction”.

The values are drawn from IntAct's records for PubMed 19762560.
